The results in this text go back to patent US20070003546A1.

pKd: −log10 of the molar value.

One may read the pKd as −log10 of the Kd, conventionally taken in molar units. Low values mean a high Kd, high ones a low Kd.

The target of experiment [1] is extracellular region of human V158 FcγRIIIa fused with glutathione S-Transferase (GST) (human) (UniProt P08637). Nature of the experiment: AlphaScreen competition.
For experiment [2], the target named is His-tagged V158 FcγRIIIa (human) (UniProt P08637). In words: SPR, receptor immobilized.
The target in experiment [3] is FcγRIIIa on human PBMCs expressing heterozygous V158/F158 FcγRIIIa (human) (UniProt P08637). In words: cell-based or functional assay.

extracellular region of human V158 FcγRIIIa fused with glutathione S-Transferase (GST) (human), sequence (P08637 17-208 F176V): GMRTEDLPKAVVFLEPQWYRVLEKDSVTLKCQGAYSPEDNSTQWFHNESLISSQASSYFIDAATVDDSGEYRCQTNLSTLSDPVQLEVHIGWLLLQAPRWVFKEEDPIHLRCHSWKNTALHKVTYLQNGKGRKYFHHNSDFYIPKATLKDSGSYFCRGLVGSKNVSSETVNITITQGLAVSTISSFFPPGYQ
His-tagged V158 FcγRIIIa (human), sequence (P08637 17-208 F176V limits assumed): as the sequence (P08637 17-208 F176V) above

For trastuzumab K274Y (antibody), the FcγRIIIa Fold in experiment [1] was 1.06 fold.

As to trastuzumab L234I/L235D (antibody), the FcγRIIIa Fold in experiment [1] worked out at 0.07 fold. Still for that read-out and setting: in the case of trastuzumab N276Y (antibody) it was 0.56 fold; in that of trastuzumab K326T (antibody), 1.88 fold; in that of “trastuzumab S239D/A330Y/I332E/V264T (antibody)”, 17.7 fold. Consider trastuzumab K326I (antibody), for which, in experiment [1], the FcγRIIIa Fold was 1.43 fold. Same read-out and setting: in the case of trastuzumab K274E (antibody) it was 6.11 fold. For the substance alemtuzumab S298A (antibody), the negative-log Kd (pKd) in experiment [2] is 7.28. In experiment [1], trastuzumab K274R (antibody) came in with a FcγRIIIa Fold of 1.41 fold. In turn, “trastuzumab S239D/A330Y/I332E/V240I (antibody)” yielded a FcγRIIIa Fold in experiment [1] of 28 fold. As to trastuzumab T335R (antibody), the FcγRIIIa Fold in experiment [1] stood at 2.58 fold. The same measure, in the same setting: in the case of “trastuzumab S239D/A330Y/I332E/K326E (antibody)” it was 64.1 fold. alemtuzumab V264I/I332E (antibody) gave an ADCC EC50 (DELFIA EuTDA, DoHH-2 target cells) in experiment [3] of 4 ng/mL. In experiment [2], this substance showed a negative-log Kd (pKd) of 7.77. Take trastuzumab P230A (antibody): the FcγRIIIa Fold in experiment [1] is 1.09 fold. Same read-out and setting: in the case of trastuzumab E283R (antibody) it was 0.67 fold. On the same count and under the same terms, in the case of trastuzumab S324Y (antibody) it was 0.98 fold; in that of trastuzumab E233D (antibody), 0.85 fold. Same read-out and setting: in the case of trastuzumab P230A/E233D (antibody) it was 0.92 fold.

As to trastuzumab N276R (antibody), the FcγRIIIa Fold in experiment [1] came to 0.66 fold. With “alemtuzumab S298A/E333A/K334A (antibody)”, in experiment [2], the pKd was 7.41.

“trastuzumab S239D/A330Y/I332E/L235D (antibody)” came in with a FcγRIIIa Fold in experiment [1] of 7.04 fold. As to trastuzumab K274T (antibody), the FcγRIIIa Fold in experiment [1] was determined as 1.41 fold. Substance trastuzumab F275W (antibody) returned a FcγRIIIa Fold in experiment [1] of 1.11 fold.

“trastuzumab P230A/E233D/I332E (antibody)”: the FcγRIIIa Fold in experiment [1] amounted to 1.87 fold. As for trastuzumab S324R (antibody), the FcγRIIIa Fold in experiment [1] stood at 0.71 fold. In experiment [1], trastuzumab V302I (antibody) yielded a FcγRIIIa Fold of 1.01 fold.

The substance WT alemtuzumab (antibody) gave a pKd in experiment [2] of 7.17.

Substance “trastuzumab S239D/A330Y/I332E/L234I (antibody)” yielded a FcγRIIIa Fold in experiment [1] of 22.4 fold. On the same count and under the same terms, in the case of trastuzumab E333T (antibody) it was 0.78 fold. In experiment [1], trastuzumab S324V (antibody) returned a FcγRIIIa Fold of 1.17 fold.

Turning to alemtuzumab S239D/I332E (antibody), in experiment [3], the ADCC EC50 (DELFIA EuTDA, DoHH-2 target cells) was found to be 3 ng/mL. Take trastuzumab E318R (antibody): the FcγRIIIa Fold in experiment [1] is 1.06 fold. For trastuzumab V323I (antibody), in experiment [1], the FcγRIIIa Fold turned out to be 0.83 fold. In experiment [1], trastuzumab Y278E (antibody) showed a FcγRIIIa Fold of 0.9 fold. Same read-out and setting: in the case of trastuzumab Y278T (antibody) it was 1.87 fold; in that of trastuzumab Y278W (antibody), 0.41 fold. Consider trastuzumab K274L (antibody), for which the FcγRIIIa Fold in experiment [1] was found to be 1.09 fold. Same read-out and setting: in the case of trastuzumab N276S (antibody) it was 0.41 fold.

In experiment [2], alemtuzumab I332E (antibody) had a pKd of 7.51. In experiment [1], trastuzumab T335Y (antibody) yielded a FcγRIIIa Fold of 1.56 fold. Same read-out and setting: in the case of “trastuzumab S239D/I332E/A330I (antibody)” it was 59.1 fold; in that of trastuzumab E272Y (antibody), 8.7 fold.

On to trastuzumab N276E (antibody), for which the FcγRIIIa Fold in experiment [1] stood at 0.87 fold. Turning to trastuzumab V273I (antibody), the FcγRIIIa Fold in experiment [1] was determined as 0.79 fold. Same read-out and setting: in the case of trastuzumab V240I/V266I (antibody) it was 1.72 fold; in that of trastuzumab T335D (antibody), 2.79 fold; in that of alemtuzumab A298H (antibody), 0.27 fold. The substance trastuzumab E333H (antibody) gave a FcγRIIIa Fold in experiment [1] of 0.75 fold. As to alemtuzumab V264I (antibody), the pKd in experiment [2] was 7.19.
